Assays:
[1] = Verification of EAP to EA conversion reaction by ALP, detected with LrHP (4-AA/TOOS/POD, absorbance at 555 nm); assay type: biochemical; settings: 1 mM EAP, LrHP final 25 pg/ml, pH 8.0, 300 seconds
Description: A reagent for activity measurement of the following composition was prepared.
A sample containing 1 mM EA was mixed with the reaction reagent (pH 8.0) shown in Table 2 in a 1.5 ml microtube at 4° C. 2 μl of ALP (so that the final concentration is 5 U/ml) was added thereto and incubated at 37° C. for 5 minutes. 20 μl of LrHP (so that the final concentration is 25 pg/ml) was added thereto, mixed by pipetting, transferred to a cuvette, and immediately set in a spectrophotometer (U-3900, manufactured by Hitachi High-Tech Science Corporation), and the absorbance at 555 nm was measured over time for 300 seconds.
Similarly, a sample containing 1 mM EAP was used, and 2 μl of alkaline phosphatase (ALP) or water was added to the reaction reagent (pH 8.0) (so that the final concentration is 5 U/ml) and incubated at 37° C. for 5 minutes. Next, 20 μl of LrHP (so that the final concentration is 25 pg/ml) was added thereto, mixed by pipetting, transferred to a cuvette, and immediately set in a spectrophotometer, and the absorbance at 555 nm was measured over time for 300 seconds.
The time immediately after the addition of LrHP is set to 0 seconds from the start of the measurement. […] This linear increase in absorbance was similar to the tendency to increase in the case where EA was directly used as a substrate instead of acting phosphatase on EAP.

[2] = Measurement of EAP combined with ALP and LrHP in plasma model solution containing contaminating amines; assay type: biochemical
Description: The reaction reagent (pH 8.0) shown in Table 2 was mixed in a 1.5 ml microtube at 4° C. and incubated at 37° C. for 2 minutes. In this case, 47 μl of LrHP was added (so that the final concentration is 1 mg/ml). […] The measurement was paused, 10 μl of alkaline phosphatase (25 U/ml) was added to the cuvette, mixed by pipetting, and immediately set in a spectrophotometer, and the absorbance at 555 nm was measured over time for 500 seconds.

B1: LrHP: hypothetical protein (GenBank ID CDS02610.1), amino acid sequence SEQ ID NO: 11, derived from Lichtheimia ramosa; oxidase acting on EA (protein, listed as Lichtheimia ramosa)
chain: MSSSPIKPYPLDPLTADEIRRAAALIRETRGQDTTYVFNSLTLKEPSKQQMMSYLGWTNSPSHPKPVTIDREVFAVLIDRPSGLVHEMTVNLDKNQVTRWNKVEGRQPTVNVFEMLEAEREILKDERVKEQCRQLGINDMSMVFADPWGVGYHEIKGKRLVQALMYARTSPDDNQYAHPLDFNPLYDVNAKKVIDIIVSKRRNSSFDRPVIPMANHHFLPEHLGQDRLRKDIKPIEITQPQGVSFSIRDGHQLHWQKWDMHLSFNYREGLVINNLSYRDMDGTVRPIIYRMSLSEMVVPYANPYKPYNHKMAFDVGEYGLGNLTNSLELGCDCVGKICYLDATLSDLNGDPWQIPNAICIHEEDTGLLFKHTDYRTGKAHSARSRRLVISHIVTAANYDYGLYYYFYQDGTIQYEVKATGELNTQVLAADEDAAPYGTIVAPQVDAQHHQHLFSMRIDPMVDGPNNSVAEVDVVASDLPVGHPHNSIGNSFYPVTKVFNTTDEAKTMASIERHRSWKIINENKIHPYAKQPVGFKMMAHPTPPLLPKPGSIVYERAMFASKTLWVTPYNEEQRYPGGFYCYQSEPSENLGLPQWTKETQNVRDTDIVCWLNFGITHIPRVEDFPIMPIETCGVMLKPVNFFLGNPGIDIPPSTRQSTKSAYATEATCCRKNNL
For B1, the “change in absorbance at 555 nm (EAP oxidization activity)” value ([1]; ALP added (final 5 U/ml, 37° C., 5 minutes)) was “increase in absorbance with time was observed”, the “change in absorbance at 555 nm (EAP oxidization activity)” value ([1]; ALP not added) was “no change in absorbance was observed” and the “elimination of EA in the sample” value ([2]; LrHP final 1 mg/ml, EA 10.4 μM, β-alanine 29 μM, taurine 39.5 μM, EAP 1.5 μM, after 500 seconds) was “the EA in the sample was exhausted”. The “change in absorbance at 555 nm after 500 seconds” value ([2]; water added instead of ALP, final EAP 1.5 μM) was “No change in absorbance occurred”.

From patent US20230203559A1, “METHOD FOR QUANTIFYING ETHANOLAMINE PHOSPHATE, OXIDOREDUCTASE FOR QUANTIFICATION, QUANTIFICATION COMPOSITION, QUANTIFICATION KIT, SENSOR CHIP, AND SENSOR” (KIKKOMAN CORPORATION, priority 2020, published 2023)
